From paper PMC6902690 (The FASEB Journal, 2019) come the findings set out here.

This assay has as its target factor H binding protein variant 1, recombinant (Neisseria meningitidis serogroup B …, UniProt Q9JXV4, strain). In words: Gyrolab immunoassay; biotinylated fHbp v1, v2 or v3 as capture reagent (100 µg/ml); Fabs at 10 µg/ml in Rexxip H; detection with goat anti-human IgG Fab fragment specific-Alexa 647 (25 nM); Bioaffy 200 CDs, 3-step method; positive when the fluorescent signal was higher than 10. Conditions: both partners purified.

B1: huFab 1E6 (recombinant Fab produced in E. coli) (Fab, V domains shown)
VH: EVQLVQSGAEVKKPGSSVKVSCKASGGTVIDYPITWVRQAPGQGLEWVGGFVPLFRTSNYGQKFQGRVTITADKSTSTASMELNSLTSEDTAIYYCARGDTAMGPFDYWGQGTLVTVSS
VL: SYVLTQPPSLSVAPGKTATLTCGGNNIAGKTVHWYQQRPGQAPVLVISYDSDRPSGIPERFSGSNSANTATLTISRVEAGDEADYYCQVWDRNSDHWVFGGGTKLTVL
Take B1: the binding result is “binds”.
